Assay results taken from paper PMC10119233 (2022).

Molecular target: Recombinant Fc-tagged hDLL4 (human, UniProt Q9NR61 27-529)
Test: SPR

Chain of Recombinant Fc-tagged hDLL4 (Q9NR61 27-529): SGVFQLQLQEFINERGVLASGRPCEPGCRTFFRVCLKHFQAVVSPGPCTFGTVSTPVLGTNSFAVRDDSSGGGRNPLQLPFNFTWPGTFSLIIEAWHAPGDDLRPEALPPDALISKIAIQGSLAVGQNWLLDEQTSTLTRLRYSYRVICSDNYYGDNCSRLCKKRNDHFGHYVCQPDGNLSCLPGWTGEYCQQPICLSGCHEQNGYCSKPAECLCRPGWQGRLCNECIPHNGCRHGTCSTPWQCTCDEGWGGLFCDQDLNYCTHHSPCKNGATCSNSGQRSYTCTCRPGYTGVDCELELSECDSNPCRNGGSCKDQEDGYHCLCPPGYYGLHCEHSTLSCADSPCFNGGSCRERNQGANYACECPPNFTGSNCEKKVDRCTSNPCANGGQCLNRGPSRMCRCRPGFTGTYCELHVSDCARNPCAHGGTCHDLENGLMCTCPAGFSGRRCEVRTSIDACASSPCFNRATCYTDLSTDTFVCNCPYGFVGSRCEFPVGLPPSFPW

B1: N4_(10-14)Fc, Notch4 EGF-like repeats 10–14 fused to human IgG Fc (Fc fusion)
chain: RGLLCGSFPEPCANGGTCLSLSLGQGTCQCAPGFLGETCQFPDPCQNAQLCQNGGSCQALLPAPLGLPSSPSPLTPSFLCTCLPGFTGERCQAKLEDPCPPSFCSKRGRCHIQASGRPQCSCMPGWTGEQCQLRDFCSANPCVNGGVCLATYPQIQCHCPPGFEGHACERDVNECFQDPGPCPKGTSCHNTLGSFQCLCPVGQEGPRCELRAGPCPPRGCSNGGTCQLMPEKDSTFHLCLCPPGFIGPDCEVNPDNCVSHQCQNGGTCQDGLDTYTCLCPETWTGWDCSEDVDECETQGPPHCRNGGTCQNSAGSFHCVCVSGWGGTSCEENLDDCIAATCAPGSTCIDRVGSFSCLCPPGRTGLLCHLEDMCLSQPCHGDAQCSTNPLTGSTLCLCQPGYSGPTCHQDLDECLMAQQGPSPCEHGGSCLNTPGSFNCLCPPGYTGSRCEADHNECLSQPCHPGSTCLDLLATFHCLCPPGLEGQLCEVETNECASAPCLNHADCHDLLNGFQCICLPGFSGTRCEEDIDECRSSPCANGGQCQDQPGAFHCKCLPGFEGPRCQTEVDECLSDPCPVGASCLDLPGAFFCLCPSGFTGQLCEVPLCAPNLCQPKQICKDQKDKANCLCPDGSPGCAPPEDNCTCHHGHCQRSSCVCDVGWTGPECEAELGGCISAPCAHGGTCYPQPSGYNCTCPTGYTGPTCSEEMTACHSGPCLNGGSCNPSPGGYYCTCPPSHTGPQCQTSTDYCVSAPCFNGGTCVNRPGTFSCLCAMGFQGPRCEGKLRPSCADSPCRNRATCQDSPQGPRCLCPTGYTGGSCQTLMDLCAQKPCPRNSHCLQTGPSFHCLCLQGWTGPLCNLPLSSCQKAALSQGIDVSSLCHNGGLCVDSGPSYFCHCPPGFQGSLCQDHVNPCESRPCQNGATCMAQPSGYLCQCAPGYDGQNCSKELDACQSQPCHNHGTCTPKPGGFHCACPPGFVGLRCEGDVDECLDQPCHPTGTAACHSLANAFYCQCLPGHTGQWCEVEIDPCHSQPCFHGGTCEATAGSPLGFICHCPKGFEGPTCSHRAPSCGFHHCHHGGLCLPSPKPGFPPRCACLSGYGGPDCLTPPAPKGCGPPSPCLYNGSCSETTGLGGPGFRCSCPHSSPGPRCQKPGAKGCEGRSGDGACDAGCSGPGGNWDGGDCSLGVPDPWKGCPSHSRCWLLFRDGQCHPQCDSEECLFDGYDCETPPACTPAYDQYCHDHFHNGHCEKGCNTAECGWDGGDCRPEDGDPEWGPSLALLVVLSPPALDQQLFALARVLSLTLRVGLWVRKDRDGRDMVYPYPGARAEEKLGGTRDPTYQERAAPQTQPLGKETDSLSAGFVVVMGVDLSRCGPDHPASRCPWDPGLLLRFLAAMAAVGALEPLLPGPLLAVHPHAGTAPPANQLPWPVLCSPVAGVILLALGALLVLQLIRRRRREHGALWLPPGFTRRPRTQSAPHRRRPPLGEDSIGLKALKPKAEVDEDGVVMCSGPEEGEEVGQAEETGPPSTCQLWSLSGGCGALPQAAMLTPPQESEMEAPDLDTRGPDGVTPLMSAVCCGEVQSGTFQGAWLGCPEPWEPLLDGGACPQAHTVGTGETPLHLAARFSRPTAARRLLEAGANPNQPDRAGRTPLHAAVAADAREVCQLLLRSRQTAVDARTEDGTTPLMLAARLAVEDLVEELIAAQADVGARDKWGKTALHWAAAVNNARAARSLLQAGADKDAQDNREQTPLFLAAREGAVEVAQLLLGLGAARELRDQAGLAPADVAHQRNHWDLLTLLEGAGPPEARHKATPGREAGPFPRARTVSVSVPPHGGGALPRCRTLSAGAGPRGGGACLQARTWSVDLAARGGGAYSHCRSLSGVGAGGGPTPRGRRFSAGMRGPRPNPAIMRGRYGVAAGRGGRVSTDDWPCDWVALGACGSASNIPIPPPCLTPSPERGSPQLDCGPPALQEMPINQGGEGKK
For B1, the koff was 0.0099 s⁻¹.
